Laboratory results reported in the supplement of paper PMC11246515.
± gives the standard deviation of the averaged measurements.

Test: total protein half-life in vivo (active degradation + dilution); higher = more stable protein
[1] = E. coli NCM3722 delta-clpP delta-lon delta-hslV, growth: N-lim chemostat, doubling time 6 h
[2] = E. coli NCM3722 delta-clpP, growth: N-lim chemostat, doubling time 6 h
[3] = E. coli NCM3722 delta-hslV, growth: N-lim chemostat, doubling time 6 h
[4] = E. coli NCM3722 delta-lon, growth: N-lim chemostat, doubling time 6 h
[5] = E. coli NCM3722 delta-smpB, growth: N-lim chemostat, doubling time 6 h
[6] = wild type E. coli NCM3722, growth: C-lim chemostat, doubling time 3 h
[7] = wild type E. coli NCM3722, growth: C-lim chemostat, doubling time 6 h
[8] = wild type E. coli NCM3722, growth: C-lim chemostat, doubling time 12 h
[9] = wild type E. coli NCM3722, growth: N-lim chemostat, doubling time 6 h
[10] = wild type E. coli NCM3722, growth: N-lim chemostat, doubling time 12 h
[11] = wild type E. coli NCM3722, growth: P-lim chemostat, doubling time 6 h
[12] = wild type E. coli NCM3722, growth: P-lim chemostat, doubling time 12 h

Q: Which results are given for “MPSLSKEAALVHEALVARGLETPLRPPVHEMDNETRKSLIAGHMTEIMQLLNLDLADDSLMETPHRIAKMYVDEIFSGLDYANFPKITLIENKMKVDEMVTVRDITLTSTCEHHFVTIDGKATVAYIPKDSVIGLSKINRIVQFFAQRPQVQERLTQQILIALQTLLGTNNVAVSIDAVHYCVKARGIRDATSATTTTSLGGLFKSSQNTRHEFLRAVRHHN [P0A6T5]”?
A: total protein half-life in vivo [1]: 2.49 ± 0.12 h; total protein half-life in vivo [2]: 1.56 ± 0.27 h; total protein half-life in vivo [3]: 1.5 ± 0.11 h; total protein half-life in vivo [4]: 1.82 ± 0.16 h; total protein half-life in vivo [5]: 1.65 ± 0.21 h; total protein half-life in vivo [6]: 2.81 ± 0.23 h; total protein half-life in vivo [7]: 3.46 ± 0.48 h; total protein half-life in vivo [8]: 5.29 ± 0.21 h; total protein half-life in vivo [9]: 1.89 ± 0.34 h; total protein half-life in vivo [10]: 2.02 ± 0.14 h; total protein half-life in vivo [11]: 4.46 ± 0.21 h; total protein half-life in vivo [12]: 8.1 ± 0.27 h

Q: Which “total protein half-life in vivo” value [1] does the source give for “MKRTKSIRHASFRKNWSARHLTPVALAVATVFMLAGCEKSDETVSLYQNADDCSAANPGKSAECTTAYNNALKEAERTAPKYATREDCVAEFGEGQCQQAPAQAGMAPENQAQAQQSSGSFWMPLMAGYMMGRLMGGGAGFAQQPLFSSKNPASPAYGKYTDATGKNYGAAQPGRTMTVPKTAMAPKPATTTTVTRGGFGESVAKQSTMQRSATGTSSRSMGG [P0ADT2]” here?
A: 3.82 ± 0.98 h

Q: And the “total protein half-life in vivo” value [2]?
A: 4.17 ± 0.3 h

Q: And the “total protein half-life in vivo” value [3]?
A: 3.89 ± 0.12 h

Q: And the “total protein half-life in vivo” value [4]?
A: 3.69 ± 0.096 h

Q: What about the “total protein half-life in vivo” value [5] of the same sequence?
A: 3.22 ± 0.56 h

Q: And the “total protein half-life in vivo” value [6]?
A: 1.83 ± 0.4 h

Q: What about the “total protein half-life in vivo” value [7] of the same sequence?
A: 3.71 ± 0.29 h

Q: What about the “total protein half-life in vivo” value [8] of the same sequence?
A: 5.86 ± 0.6 h

Q: What about the “total protein half-life in vivo” value [9] of the same sequence?
A: 4.08 ± 0.88 h

Q: And the “total protein half-life in vivo” value [10]?
A: 7.11 ± 0.26 h

Q: And the “total protein half-life in vivo” value [11]?
A: 3.45 ± 0.38 h

Q: What about the “total protein half-life in vivo” value [12] of the same sequence?
A: 7.48 ± 0.2 h

Q: For “MPVRASIEPLTWENAFFGVNSAIVRITSEAPLLTPDALAPWSRVQAKIAASNTGELDALQQLGFSLVEGEVDLALPVNNASDSGAVVAQETDIPALRQLASAAFAQSRFRAPWYAPDASSRFYAQWIENAVRGTFDHQCLILRAASGDIRGYVSLRELNATDARIGLLAGRGAGAELMQTALNWAYARGKTTLRVATQMGNTAALKRYIQSGANVESTAYWLYR”, which “total protein half-life in vivo” value [1] is on record?
A: 5.12 ± 0.074 h

Q: What about the “total protein half-life in vivo” value [2] of the same sequence?
A: 5.45 ± 0.15 h

Q: And the “total protein half-life in vivo” value [3]?
A: 5.034 ± 0.029 h

Q: And the “total protein half-life in vivo” value [4]?
A: 5.27 ± 0.26 h

Q: And the “total protein half-life in vivo” value [5]?
A: 4.7 ± 0.44 h

Q: And the “total protein half-life in vivo” value [6]?
A: 3.03 ± 0.15 h

Q: What about the “total protein half-life in vivo” value [7] of the same sequence?
A: 5.9 ± 0.062 h

Q: And the “total protein half-life in vivo” value [8]?
A: 11.5 h

Q: And the “total protein half-life in vivo” value [9]?
A: 5.052 ± 0.012 h

Q: What about the “total protein half-life in vivo” value [10] of the same sequence?
A: 9.31 ± 0.14 h

Q: What about the “total protein half-life in vivo” value [11] of the same sequence?
A: 5.73 ± 0.87 h

Q: What about the “total protein half-life in vivo” value [12] of the same sequence?
A: 12.6 ± 0.52 h

Q: Which “total protein half-life in vivo” value [1] does the source give for “MSTFKPLKTLTSRRQVLKAGLAALTLSGMSQAIAKDELLKTSNGHSKPKAKKSGGKRVVVLDPGHGGIDTGAIGRNGSKEKHVVLAIAKNVRSILRNHGIDARLTRSGDTFIPLYDRVEIAHKHGADLFMSIHADGFTNPKAAGASVFALSNRGASSAMAKYLSERENRADEVAGKKATDKDHLLQQVLFDLVQTDTIKNSLTLGSHILKKIKPVHKLHSRNTEQAAFVVLKSPSVPSVLVETSFITNPEEERLLGTAAFRQKIATAIAEGVISYFHWFDNQKAHSKKR” here?
A: 5.02 ± 0.67 h

Q: What about the “total protein half-life in vivo” value [2] of the same sequence?
A: 5.75 ± 0.35 h

Q: And the “total protein half-life in vivo” value [3]?
A: 4.89 ± 0.52 h

Q: And the “total protein half-life in vivo” value [4]?
A: 4.977 ± 0.029 h

Q: What about the “total protein half-life in vivo” value [5] of the same sequence?
A: 4.41 ± 0.32 h

Q: And the “total protein half-life in vivo” value [6]?
A: 2.23 ± 0.033 h

Q: And the “total protein half-life in vivo” value [7]?
A: 3.5509 ± 0.0011 h

Q: And the “total protein half-life in vivo” value [8]?
A: 5 ± 0.2 h

Q: And the “total protein half-life in vivo” value [9]?
A: 5.08 ± 0.94 h

Q: And the “total protein half-life in vivo” value [10]?
A: 8.42 ± 0.29 h

Q: And the “total protein half-life in vivo” value [11]?
A: 4.48 ± 0.47 h

Q: And the “total protein half-life in vivo” value [12]?
A: 8.52 ± 0.41 h

Q: For “MGKHHWKIEKQPEWYVKAVRKTIAALPSGYAEAADWLDVTENALFNRLRADGDQIFPLGWAMVLQRAGGTHFIADAVAQSANGVFVSLPDVEDVDNADINQRLLEVIEQIGSYSKQIRSAIEDGVVEPHEKTAINDELYLSISKLQEHAALVYKIFCISESNDARECAAPGVVASIASGCGETNA”, which “total protein half-life in vivo” value [1] is on record?
A: 2.93 ± 0.6 h

Q: What does the source list for “MKGRWVKYLLMGTVVAMLAACSSKPTDRGQQYKDGKFTQPFSLVNQPDAVGAPINAGDFAEQINHIRNSSPRLYGNQSNVYNAVQEWLRAGGDTRNMRQFGIDAWQMEGADNYGNVQFTGYYTPVIQARHTRQGEFQYPIYRMPPKRGRLPSRAEIYAGALSDKYILAYSNSLMDNFIMDVQGSGYIDFGDGSPLNFFSYAGKNGHAYRSIGKVLIDRGEVKKEDMSMQAIRHWGETHSEAEVRELLEQNPSFVFFKPQSFAPVKGASAVPLVGRASVASDRSIIPPGTTLLAEVPLLDNNGKFNGQYELRLMVALDVGGAIKGQHFDIYQGIGPEAGHRAGWYNHYGRVWVLKTAPGAGNVFSG [P0A935]”?
A: total protein half-life in vivo [1]: 5.19 ± 1.9 h; total protein half-life in vivo [2]: 4.22 ± 0.17 h; total protein half-life in vivo [3]: 3.87 ± 0.69 h; total protein half-life in vivo [4]: 4.05 ± 0.22 h; total protein half-life in vivo [5]: 3 ± 0.41 h; total protein half-life in vivo [6]: 1.877 ± 0.013 h; total protein half-life in vivo [7]: 2.8 ± 0.13 h; total protein half-life in vivo [8]: 4.23 ± 0.38 h; total protein half-life in vivo [9]: 2.99 ± 0.4 h; total protein half-life in vivo [10]: 3.79 ± 0.35 h; total protein half-life in vivo [11]: 3.7 ± 0.37 h; total protein half-life in vivo [12]: 6.57 ± 0.27 h

Q: What does the source list for “MSTQEATLQQPLLQAIDLKKHYPVKKGMFAPERLVKALDGVSFNLERGKTLAVVGESGCGKSTLGRLLTMIEMPTGGELYYQGQDLLKHDPQAQKLRRQKIQIVFQNPYGSLNPRKKVGQILEEPLLINTSLSKEQRREKALSMMAKVGLKTEHYDRYPHMFSGGQRQRIAIARGLMLDPDVVIADEPVSALDVSVRAQVLNLMMDLQQELGLSYVFISHDLSVVEHIADEVMVMYLGRCVEKGTKDQIFNNPRHPYTQALLSATPRLNPDDRRERIKLSGELPSPLNPPPGCAFNARCRRRFGPCTQLQPQLKDYGGQLVACFAVDQDENPQR”?
A: total protein half-life in vivo [1]: 6.25 ± 0.25 h; total protein half-life in vivo [2]: 5.92 ± 0.29 h; total protein half-life in vivo [3]: 6.41 ± 0.085 h; total protein half-life in vivo [4]: 6.11 ± 0.94 h; total protein half-life in vivo [5]: 5.605 ± 0.031 h; total protein half-life in vivo [6]: 2.88 ± 0.33 h; total protein half-life in vivo [7]: 6.28 ± 0.43 h; total protein half-life in vivo [8]: 11.6 ± 0.25 h; total protein half-life in vivo [9]: 6.08 ± 0.62 h; total protein half-life in vivo [10]: 13.1 ± 0.71 h; total protein half-life in vivo [11]: 6.16 ± 0.27 h; total protein half-life in vivo [12]: 13.1 ± 0.21 h

Q: Which “total protein half-life in vivo” value [1] does the source give for “MANWQSIDELQDIASDLPRFIHALDELSRRLGLNITPLTADHISLRCHQNATAERWRRGFEQCGELLSENMINGRPICLFKLHEPVQVAHWQFSIVELPWPGEKRYPHEGWEHIEIVLPGDPETLNARALALLSDEGLSLPGISVKTSSPKGEHERLPNPTLAVTDGKTTIKFHPWSIEEIVASEQSA” here?
A: 5.34 ± 1.4 h

Q: What about the “total protein half-life in vivo” value [2] of the same sequence?
A: 3.77 ± 0.15 h

Q: And the “total protein half-life in vivo” value [3]?
A: 2.73 ± 0.29 h

Q: And the “total protein half-life in vivo” value [4]?
A: 3.16 ± 0.24 h

Q: What about the “total protein half-life in vivo” value [5] of the same sequence?
A: 3.04 ± 0.023 h

Q: And the “total protein half-life in vivo” value [6]?
A: 2.231 ± 0.0095 h

Q: What about the “total protein half-life in vivo” value [7] of the same sequence?
A: 3.62 ± 1.4 h

Q: What about the “total protein half-life in vivo” value [8] of the same sequence?
A: 5.25 ± 0.3 h

Q: What about the “total protein half-life in vivo” value [9] of the same sequence?
A: 3.3 h

Q: What about the “total protein half-life in vivo” value [10] of the same sequence?
A: 3.66 h

Q: And the “total protein half-life in vivo” value [11]?
A: 3.83 h

Q: And the “total protein half-life in vivo” value [12]?
A: 6.37 ± 1.2 h
